Molecular target: T1, MLO-Y4 cell surface proteins (Mus musculus, UniProt P59242)
T1 construct: endogenous in cells; host or cells: MLO-Y4
T1 sequence (P59242 1-1191): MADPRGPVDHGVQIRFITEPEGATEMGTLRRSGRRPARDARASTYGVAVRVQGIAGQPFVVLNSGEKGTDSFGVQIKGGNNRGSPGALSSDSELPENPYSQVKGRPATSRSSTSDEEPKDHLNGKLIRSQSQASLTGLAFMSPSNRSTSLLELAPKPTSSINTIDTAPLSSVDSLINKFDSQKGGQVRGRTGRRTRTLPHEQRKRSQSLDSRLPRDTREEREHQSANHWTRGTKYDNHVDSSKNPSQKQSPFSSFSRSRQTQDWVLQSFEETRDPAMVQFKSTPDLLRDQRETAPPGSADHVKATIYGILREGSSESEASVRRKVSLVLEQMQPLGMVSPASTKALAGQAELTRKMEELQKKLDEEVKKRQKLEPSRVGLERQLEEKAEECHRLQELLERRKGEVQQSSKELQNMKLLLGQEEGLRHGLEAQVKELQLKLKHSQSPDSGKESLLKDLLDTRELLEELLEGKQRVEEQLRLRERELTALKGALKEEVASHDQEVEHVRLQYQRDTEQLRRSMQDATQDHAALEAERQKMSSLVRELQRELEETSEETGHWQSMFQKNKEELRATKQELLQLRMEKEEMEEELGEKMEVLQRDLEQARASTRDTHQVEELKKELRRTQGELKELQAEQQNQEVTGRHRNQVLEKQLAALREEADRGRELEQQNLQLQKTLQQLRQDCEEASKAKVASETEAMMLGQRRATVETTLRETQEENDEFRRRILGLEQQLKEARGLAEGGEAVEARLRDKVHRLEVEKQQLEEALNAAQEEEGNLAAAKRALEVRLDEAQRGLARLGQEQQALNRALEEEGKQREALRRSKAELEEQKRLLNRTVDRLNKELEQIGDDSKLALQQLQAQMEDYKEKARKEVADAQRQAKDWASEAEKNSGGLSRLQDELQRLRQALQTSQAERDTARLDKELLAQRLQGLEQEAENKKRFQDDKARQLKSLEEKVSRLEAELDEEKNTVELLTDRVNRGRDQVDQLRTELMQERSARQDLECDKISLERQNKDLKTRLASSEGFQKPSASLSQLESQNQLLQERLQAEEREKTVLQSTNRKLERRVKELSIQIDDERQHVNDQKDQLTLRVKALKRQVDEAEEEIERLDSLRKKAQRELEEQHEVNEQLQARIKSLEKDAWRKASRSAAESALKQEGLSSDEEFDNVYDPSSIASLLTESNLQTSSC
Assay: Crosslinking/co-immunoprecipitation/mass spectrometry (TMT quantitative proteomics) to identify irisin receptors
Assay type: binding
Settings: co-precipitated protein Cgn (CING_MOUSE)
Procedure, shortened: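 Mouse MLO-Y4 cells were switched to serum-free FreeStyle medium for 4 h, chilled, then exposed to 10 nM His-tagged irisin (or adipsin as control) for 20 min. Cells were crosslinked with 1.5 mM DTSSP (30 min, ice), and bound proteins were pulled down on Ni-NTA and eluted with 250 mM imidazole. Eluates were separated by SDS-PAGE, trypsin-digested in gel, TMT 6-plex labelled and quantified by MS3-based LC-MS/MS on an Orbitrap Fusion Lumos.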

B1: irisin: secreted cleaved form of FNDC5; recombinant human/mouse irisin with C-terminal his tag produced in HEK293 cells (protein)
chain: DSPSAPVNVTVRHLKANSAVVSWDVLEDEVVIGFAISQQKKDVRMLRFIQEVNTTTRSCALWDLEEDTEYIVHVQAISIQGQSPASEPVLFKTPREAEKMASKNKDEVTMKE
modifications: left off: small tags and cut ends
notes: secreted cleaved form of FNDC5; recombinant human/mouse irisin with C-terminal his tag produced in HEK293 cells
- TMT signal-to-noise ratio: 16.0255
- irisin/adipsin TMT signal-to-noise ratio: 0.080

From patent publication US20210063414A1, “METHODS FOR PREVENTING AND/OR TREATING BONE LOSS CONDITIONS BY MODULATING IRISIN” (Dana-Farber Cancer Institute, Inc., priority 2018, published 2021)
